Data taken from paper PMC1475855.
One block for each substance: values may come before it.

Experiments:
Assay in all cases: SEC; FPLC of native protein with His-tag cleaved; HiLoad-16/60 Superdex200, 1 x PBS, 4°C, 1 ml/min; column calibrated with catalase, aldolase, chymotrypsinogen A and ribonuclease A
[1] = target: GFP from the orange seapen Ptilosarcus gurneyi (Pt-GFP) (Ptilosarcus gurneyi)
[2] = target: ecliptic pHluorin (Aequorea victoria)
[3] = target: ratiometric pHluorin (Aequorea victoria)

- stoichiometry N [1]: 4
Substance: GFP from the orange seapen Ptilosarcus gurneyi (Pt-GFP) (natural protein)

- stoichiometry N [2]: 2
Substance: ecliptic pHluorin

- stoichiometry N [3]: 2
Substance: ratiometric pHluorin
